Target: the molecule itself
Assay: SEC-MALS

B1: VACV protein N1 with C-terminal His6 tag (natural protein)
chain: MRTLLIRYILWRNDNDQTYYNDNFKKLMLLDELVDDGDVCTLIKNMRMTLSDGPLLDRLNQPVNNIEDAKRMIAISAKVARDIGERSEIRWEESFTILFRMIETYFDDLMIDLYGEK
- stoichiometry N: 2

Source: article PMC4358236 (The Journal of Biological Chemistry, 2015)
